Test results published in PMC2096194 (Nature structural & molecular biology, 2007).

T1: Full-length human RAD51 (human, UniProt Q06609 1-339)
T1 sequence: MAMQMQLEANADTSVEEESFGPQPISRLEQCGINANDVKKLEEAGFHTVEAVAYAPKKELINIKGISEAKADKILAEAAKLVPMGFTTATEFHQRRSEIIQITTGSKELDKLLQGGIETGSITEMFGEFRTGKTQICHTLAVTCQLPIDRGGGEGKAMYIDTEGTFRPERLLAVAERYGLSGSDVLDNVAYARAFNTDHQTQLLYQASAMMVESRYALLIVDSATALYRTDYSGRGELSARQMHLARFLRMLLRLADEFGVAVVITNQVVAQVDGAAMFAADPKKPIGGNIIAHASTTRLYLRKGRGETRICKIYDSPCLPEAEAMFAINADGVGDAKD

B1: Lys80 RAD51 (residues 80-339) (domain or fragment)
chain: KLVPMGFTTATEFHQRRSEIIQITTGSKELDKLLQGGIETGSITEMFGEFRTGKTQICHTLAVTCQLPIDRGGGEGKAMYIDTEGTFRPERLLAVAERYGLSGSDVLDNVAYARAFNTDHQTQLLYQASAMMVESRYALLIVDSATALYRTDYSGRGELSARQMHLARFLRMLLRLADEFGVAVVITNQVVAQVDGAAMFAADPKKPIGGNIIAHASTTRLYLRKGRGETRICKIYDSPCLPEAEAMFAINADGVGDAKD

Tests used:
[1] = target: B1; assay: pull-down
Full-length human RAD51 = target: T1, Full-length human RAD51; assay: cross-linking
SEC = target: the molecule itself; assay: SEC

Row | binding result [1] | binding result (Full-length human RAD51) | Binder | binding result (SEC)
1 | binds | binds | EKIKEPTLLGFHTASGKKVKIAKESLDKVKNLFDE (biotin on the N-terminus) [BRC4 peptide (human BRCA2 residues 1,514-1,548), biotinylated] | –
2 | – | – | B1 | binds
